Measurements reported in patent US11994512B2, “Single-cell genomic methods to generate ex vivo cell systems that recapitulate in vivo biology with improved fidelity” (Massachusetts Institute of Technology, priority 2018, dated 2024).

System: intracellular proteome of ENR+CD and ENR organoids
Assay: LC-MS/MS TMT proteomics of ENR+CD versus ENR organoids
Format: cell-based, C57BL/6 mice
Settings: for Average logFC / M1-1 Log2 Median Normalized / M1-2 Log2 Median Normalized / M2-1 Log2 Median Normalized / M2-2 Log2 Median Normalized: protein abundance, ENR+CD versus ENR organoids; for Average logFC: aggregate of the four sample pairs; for M1-1 Log2 Median Normalized: replicate M1-1; for M1-1 Log2 Median Normalized / M1-2 Log2 Median Normalized / M2-1 Log2 Median Normalized / M2-2 Log2 Median Normalized: log2 ratio; for M1-2 Log2 Median Normalized: replicate M1-2; for M2-1 Log2 Median Normalized: replicate M2-1; for M2-2 Log2 Median Normalized: replicate M2-2; for change: up = enriched in ENR+CD, down = enriched in ENR, FDR<0.05 and log fold change cut-off
Excerpt: Because PCs are highly secretory, protein-rich cells, Applicants sought to assess the total intracellular proteome between conditions through liquid chromatography mass spectrometry (LC-MS/MS)-based proteomics. Applicants quantified relative protein abundance across eight samples using isobaric mass tag labeling from four ENR and four ENR+CD samples (M1-1 through M2-2, first digit denotes biological donor, second digit denotes technical replicate) (FIG. 3A). Samples were processed and analyzed in a single 10-plex by LC-MS/MS (FIG. 9A).
To affirm the reproducibility of the associated proteins in the ENR+CD-enriched proteome, Applicants performed relative quantification within differentiation sets.
Mass spectrometry proteomics sample preparation, sequencing, and quantification. Organoid cell pellets were isolated from Matrigel with mechanical dissociation and washed (cold PBS 5X) to remove residual extracellular protein. Proteins were extracted from cell pellets with 8 M urea (Sigma), reduced with 5 mM DTT (Thermo Fisher Pierce) for 45 minutes, alkylated with 10 mM IAA (Sigma) for 45 minutes in the dark, and double digested with both Lysyl Endopeptidase “LysC” (Wako) and trypsin (Promega) overnight at RT. A small aliquot of cellular lysate was removed from each sample for protein quantification via the Pierce™ BCA Protein Assay Kit (Pierce). After proteolytic digestion, the samples were quenched using formic acid to a final concentration of 1.0% and subsequently desalted on 10 mg OASIS HLB solid phase columns (Waters).
The peptides were labeled with TMT-10 isobaric mass tag reagent according to manufacturer's instructions (ThermoFisher Scientific). The peptides were labeled at a 1:8 ratio of peptide to TMT reagent, followed by 1-hour incubation at RT with bench top shaking at 850 rpm. After incubation, a […] of labeled tryptic peptide was removed from each labeled condition, desalted with C18 stage tips, and analyzed via LC-MS/MS using a Thermo Fisher Q Exactive Plus Hybrid Mass Spectrometer (QE-Plus) coupled to a Thermo Fisher EASY-nLC 1000 liquid chromatograph to ensure isobaric label incorporation >95%. An additional 1.0 μg of labeled tryptic peptide was removed from each channel, mixed together, desalted on a C18 stage tip, and analyzed via LC-MS to ensure equal relative protein loads. During these quality control steps, the labeled peptides were stored, unquenched at −80° C.

Row | Molecule | Average logFC | M1-1 Log2 Median Normalized | M1-2 Log2 Median Normalized | M2-1 Log2 Median Normalized | M2-2 Log2 Median Normalized | change
1 | P18242 (protein, UniProt P18242 1-410, looked up, full-length) MKTPGVLLLILGLLASSSFAIIRIPLRKFTSIRRTMTEVGGSVEDLILKGPITKYSMQSSPKTTEPVSELLKNYLDAQYYGDIGIGTPPQCFTVVFDTGSSNLWVPSIHCKILDIACWVHHKYNSDKSSTYVKNGTSFDIHYGSGSLSGYLSQDTVSVPCKSDQSKARGIKVEKQIFGEATKQPGIVFVAAKFDGILGMGYPHISVNNVLPVFDNLMQQKLVDKNIFSFYLNRDPEGQPGGELMLGGTDSKYYHGELSYLNVTRKAYWQVHMDQLEVGNELTLCKGGCEAIVDTGTSLLVGPVEEVKELQKAIGAVPLIQGEYMIPCEKVSSLPTVYLKLGGKNYELHPDKYILKVSQGGKTICLSGFMGMDIPPPSGPLWILGDVFIGSYYTVFDRDNNRVGFANAVVL | 1.296 | 1.508 | 1.211 | 0.9875 | 1.479 | up
2 | P02772 (protein, UniProt P02772 1-605, looked up, full-length) MKWITPASLILLLHFAASKALHENEFGIASTLDSSQCVTEKNVLSIATITFTQFVPEATEEEVNKMTSDVLAAMKKNSGDGCLESQLSVFLDEICHETELSNKYGLSGCCSQSGVERHQCLLARKKTAPASVPPFQFPEPAESCKAHEENRAVFMNRFIYEVSRRNPFMYAPAILSLAAQYDKVVLACCKADNKEECFQTKRASIAKELREGSMLNEHVCSVIRKFGSRNLQATTIIKLSQKLTEANFTEIQKLALDVAHIHEECCQGNSLECLQDGEKVMTYICSQQNILSSKIAECCKLPMIQLGFCIIHAENGVKPEGLSLNPSQFLGDRNFAQFSSEEKIMFMASFLHEYSRTHPNLPVSVILRIAKTYQEILEKCSQSGNLPGCQDNLEEELQKHIEESQALSKQSCALYQTLGDYKLQNLFLIGYTRKAPQLTSAELIDLTGKMVSIASTCCQLSEEKWSGCGEGMADIFIGHLCIRNEASPVNSGISHCCNSSYSNRRLCITSFLRDETYAPPPFSEDKFIFHKDLCQAQGKALQTMKQELLINLVKQKPELTEEQLAAVTADFSGLLEKCCKAQDQEVCFTEEGPKLISKTRDALGV | −1.438 | −1.616 | −1.696 | −1.1235 | −1.316 | down
3 | P11725 (protein, UniProt P11725 1-354, looked up, full-length) MLSNLRILLNNAALRKGHTSVVRHFWCGKPVQSQVQLKGRDLLTLKNFTGEEIQYMLWLSADLKFRIKQKGEYLPLLQGKSLGMIFEKRSTRTRLSTETGFALLGGHPSFLTTQDIHLGVNESLTDTARVLSSMTDAVLARVYKQSDLDTLAKEASIPIVNGLSDLYHPIQILADYLTLQEHYGSLKGLTLSWIGDGNNILHSIMMSAAKFGMHLQAATPKGYEPDPNIVKLAEQYAKENGTKLSMTNDPLEAARGGNVLITDTWISMGQEDEKKKRLQAFQGYQVTMKTAKVAASDWTFLHCLPRKPEEVDDEVFYSPRSLVFPEAENRKWTIMAVMVSLLTDYSPVLQKPKF | −1.477 | −1.478 | −1.458 | −2.2695 | −1.132 | down
4 | P19246 (protein, UniProt P19246 1-1090, looked up, full-length) MMSFGSADALLGAPFAPLHGGGSLHYSLSRKAGPGGTRSAAGSSSGFHSWARTSVSSVSASPSRFRGAASSTDSLDTLSNGPEGCVVAAVAARSEKEQLQALNDRFAGYIDKVRQLEAHNRSLEGEAAALRQQQAGRAAMGELYEREVREMRGAVLRLGAARGQLRLEQEHLLEDIAHVRQRLDEEARQREEAEAAARALARFAQEAEAARVELQKKAQALQEECGYLRRHHQEEVGELLGQIQGCGAAQAQAQAEARDALKCDVTSALREIRAQLEGHAVQSTLQSEEWFRVRLDRLSEAAKVNTDAMRSAQEEITEYRRQLQARTTELEALKSTKESLERQRSELEDRHQADIASYQDAIQQLDSELRNTKWEMAAQLREYQDLLNVKMALDIEIAAYRKLLEGEECRIGFGPSPFSLTEGLPKIPSISTHIKVKSEEMIKVVEKSEKETVIVEGQTEEIRVTEGVTEEEDKEAQGQEGEEAEEGEEKEEEEGAAATSPPAEEAASPEKETKSRVKEEAKSPGEAKSPGEAKSPAEAKSPGEAKSPGEAKSPGEAKSPAEPKSPAEPKSPAEAKSPAEPKSPATVKSPGEAKSPSEAKSPAEAKSPAEAKSPAEAKSPAEAKSPAEAKSPAEAKSPATVKSPGEAKSPSEAKSPAEAKSPAEAKSPAEAKSPAEVKSPGEAKSPAEPKSPAEAKSPAEVKSPAEAKSPAEVKSPGEAKSPAAVKSPAEAKSPAAVKSPGEAKSPGEAKSPAEAKSPAEAKSPIEVKSPEKAKTPVKEGAKSPAEAKSPEKAKSPVKEDIKPPAEAKSPEKAKSPVKEGAKPPEKAKPLDVKSPEAQTPVQEEAKHPTDIRPPEQVKSPAKEKAKSPEKEEAKTSEKVAPKKEEVKSPVKEEVKAKEPPKKVEEEKTLPTPKTEAKESKKDEAPKEAPKPKVEEKKETPTEKPKDSTAEAKKEEAGEKKKAVASEEETPAKLGVKEEAKPKEKTETTKTEAEDTKAKEPSKPTETEKPKKEEMPAAPEKKDTKEEKTTESRKPEEKPKMEAKVKEDDKSLSKEPSKPKTEKAEKSSSTDQKESQPPEKTTEDKATKGEK | 1.284 | 1.432 | 1.357 | 1.1695 | 1.176 | up
5 | P0C027 (protein, UniProt P0C027 1-164, looked up, full-length) MKCKPNQTRTYDPEGFKKRAACLCFRSEREDEVLLVSSSRYPDRWIVPGGGMEPEEEPDGAAVREVYEEAGVKGKLGRLLGVFEQNQDRKHRTYVFVLTVTELLEDWEDSVSIGRKREWFKIEDAIKVLQCHKPVHAEYLEKLKLGGSPTNGNSAAPSPPESEP | 1.134 | 1.368 | 1.133 | 0.8135 | 1.192 | up
6 | P03958 (protein, UniProt P03958 1-352, looked up, full-length) MAQTPAFNKPKVELHVHLDGAIKPETILYFGKKRGIALPADTVEELRNIIGMDKPLSLPGFLAKFDYYMPVIAGCREAIKRIAYEFVEMKAKEGVVYVEVRYSPHLLANSKVDPMPWNQTEGDVTPDDVVDLVNQGLQEGEQAFGIKVRSILCCMRHQPSWSLEVLELCKKYNQKTVVAMDLAGDETIEGSSLFPGHVEAYEGAVKNGIHRTVHAGEVGSPEVVREAVDILKTERVGHGYHTIEDEALYNRLLKENMHFEVCPWSSYLTGAWDPKTTHAVVRFKNDKANYSLNTDDPLIFKSTLDTDYQMTKKDMGFTEEEFKRLNINAAKSSFLPEEEKKELLERLYREYQ | 1.34 | 1.339 | 0.074 | 1.5985 | 1.501 | up
7 | P06728 (protein, UniProt P06728 1-395, looked up, full-length) MFLKAAVLTLALVAITGTRAEVTSDQVANVVWDYFTQLSNNAKEAVEQFQKTDVTQQLSTLFQDKLGDASTYADGVHNKLVPFVVQLSGHLAQETERVKEEIKKELEDLRDRMMPHANKVTQTFGENMQKLQEHLKPYAVDLQDQINTQTQEMKLQLTPYIQRMQTTIKENVDNLHTSMMPLATNLKDKFNRNMEELKGHLTPRANELKATIDQNLEDLRRSLAPLTVGVQEKLNHQMEGLAFQMKKNAEELQTKVSAKIDQLQKNLAPLVEDVQSKVKGNTEGLQKSLEDLNRQLEQQVEEFRRTVEPMGEMFNKALVQQLEQFRQQLGPNSGEVESHLSFLEKSLREKVNSFMSTLEKKGSPDQPQALPLPEQAQEQAQEQAQEQVQPKPLES | −1.57 | −1.343 | −2.171 | −1.8605 | −0.907 | down
8 | P04184 (protein, UniProt P04184 1-233, looked up, full-length) MSYINLPTVLPSSPSKTRGQIQVILGPMFSGKSTELMRRVRRFQIAQYKCLVIKYAKDTRYSNSFSTHDRNTMDALPACMLRDVTQESLGVAVIGIDEGQFFPDIVDFCEMMANEGKTVIVAALDGTFQRKAFGSILNLVPLAESVVKLTAVCMECFREAAYTKRLGLEKEVEVIGGADKYHSVCRLCYFKKSSAQTAGSDNKNCLVLGQPGEALVVRKLFASQQVLQYNSAN | −1.187 | −1.268 | −1.033 | −1.0175 | −1.428 | down
